These results are taken from PMC11456535, “Receptor activity-modifying protein modulation of parathyroid hormone-1 receptor function and signaling” (Frontiers in Pharmacology, 2024).

In general, stoichiometry N refers to a count of units in the complex or per binding partner.

Where two headings read alike, the source gives them in different places.

For experiment [1], the target named is PTH1R of the PathHunter CHO-K1 PTH1R β-arrestin cell line (UniProt Q03431).
Experiment [2] shares this target. This is another data set of the same source.
For experiment [3], the target named is T1, parathyroid hormone 1 receptor, C-tagged Citrine PTH1R (human, UniProt Q03431 27-593).
T1 construct: parathyroid hormone 1 receptor (PTH1R), cDNA without its stop codon between HindIII and Not1 of pcDNA3.1 Citrine; also called parathyroid hormone receptor-1; PTHR1; source: COS-7, transfected (electroporation, pcDNA3.1), in fixed cells; not shown: Citrine, C-terminal, kept
T1 sequence (looked up): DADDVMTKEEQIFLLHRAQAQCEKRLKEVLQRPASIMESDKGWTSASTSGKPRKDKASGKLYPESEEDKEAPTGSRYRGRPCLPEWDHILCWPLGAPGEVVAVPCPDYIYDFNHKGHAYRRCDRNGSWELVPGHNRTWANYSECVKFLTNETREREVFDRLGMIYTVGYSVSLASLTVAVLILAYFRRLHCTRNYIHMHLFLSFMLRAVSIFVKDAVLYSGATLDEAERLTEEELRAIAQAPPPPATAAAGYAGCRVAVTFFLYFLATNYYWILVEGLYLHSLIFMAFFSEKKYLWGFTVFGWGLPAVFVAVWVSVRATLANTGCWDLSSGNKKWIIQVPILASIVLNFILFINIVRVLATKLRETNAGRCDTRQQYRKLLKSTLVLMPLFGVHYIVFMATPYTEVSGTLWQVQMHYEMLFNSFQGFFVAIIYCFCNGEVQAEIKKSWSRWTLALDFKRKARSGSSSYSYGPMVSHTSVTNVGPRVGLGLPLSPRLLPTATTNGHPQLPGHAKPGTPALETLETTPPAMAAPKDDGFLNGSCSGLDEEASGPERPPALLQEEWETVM
The experiment can be described thus: FRET or BRET; sensitized-emission FRET imaging at the cell surface (50-pixel membrane ROIs) of fixed COS-7 cells co-transfected with C-tagged Citrine PTH1R (acceptor) and C-tagged Cerulean RAMP (donor); NFRET as % of a Cerulean-Citrine fusion; FRET-based stoichiometric analysis (Hoppe et al., 2002). Conditions: partners not purified. In general terms: In BRET a luciferase serves as donor, and the signal depends on an acceptor being close.

Experiment [4] concerns the target T1, parathyroid hormone 1 receptor, …. Described as above. The settings on record: partners not purified. This is another data set of the same source.
The target in experiment [5] is PTH1R of the PathHunter CHO-K1 PTH1R β-arrestin cell line (UniProt Q03431). The source holds these as a separate data set.

Consider PTHrP (1-108) (domain or fragment), for which, in experiment [1], the efficacy, cAMP accumulation, CHO-K1 PTH1R + RAMP2 cells was found to be 81.4%; the efficacy, cAMP accumulation, CHO-K1 PTH1R parental cells (mock) was determined as 72.8%; the pEC50, cAMP accumulation, CHO-K1 PTH1R + RAMP2 cells amounted to 8.61 pEC50; the pEC50, cAMP accumulation, CHO-K1 PTH1R parental cells (mock) was found to be 8.25 pEC50.

As to PTH (1-34) (peptide), in experiment [2], the efficacy, cAMP accumulation (Gαs), CHO-K1 PTH1R + RAMP2 cells turned out to be 79.4%; the efficacy, cAMP accumulation (Gαs), CHO-K1 PTH1R + RAMP3 cells was 65.1%; the efficacy, cAMP accumulation (Gαs), CHO-K1 PTH1R parental cells (mock) stood at 68.1%; the efficacy, cAMP accumulation after pertussis toxin (cAMP + PTX), CHO-K1 PTH1R + RAMP2 cells stood at 71.6%. Further, in experiment [2], the efficacy, cAMP accumulation after pertussis toxin (cAMP + PTX), CHO-K1 PTH1R + RAMP3 cells amounted to 28.7%; the efficacy, cAMP accumulation after pertussis toxin (cAMP + PTX), CHO-K1 PTH1R parental cells (mock) came to 33.5%; the efficacy, calcium influx (Gαq), CHO-K1 PTH1R + RAMP2 cells was 63.5%; the efficacy, calcium influx (Gαq), CHO-K1 PTH1R parental cells (mock) worked out at 19.8%. In experiment [2], the efficacy, β-arrestin recruitment, CHO-K1 PTH1R + RAMP2 cells worked out at 103%; the efficacy, β-arrestin recruitment, CHO-K1 PTH1R parental cells (mock) worked out at 6.31%; the pEC50, cAMP accumulation (Gαs), CHO-K1 PTH1R + RAMP2 cells was determined as 9.55 pEC50; the pEC50, cAMP accumulation (Gαs), CHO-K1 PTH1R + RAMP3 cells was determined as 8.55 pEC50. In experiment [2], the pEC50, cAMP accumulation (Gαs), CHO-K1 PTH1R parental cells (mock) was 9.3 pEC50; the pEC50, cAMP accumulation after pertussis toxin (cAMP + PTX), CHO-K1 PTH1R + RAMP2 cells amounted to 10 pEC50; the pEC50, cAMP accumulation after pertussis toxin (cAMP + PTX), CHO-K1 PTH1R + RAMP3 cells was 8.48 pEC50; the pEC50, cAMP accumulation after pertussis toxin (cAMP + PTX), CHO-K1 PTH1R parental cells (mock) worked out at 8.9 pEC50. Moreover, in experiment [2], the pEC50, calcium influx (Gαq), CHO-K1 PTH1R + RAMP2 cells stood at 8.21 pEC50; the pEC50, calcium influx (Gαq), CHO-K1 PTH1R parental cells (mock) was found to be 8.9 pEC50; the pEC50, β-arrestin recruitment, CHO-K1 PTH1R + RAMP2 cells was found to be 8.19 pEC50; the pEC50, β-arrestin recruitment, CHO-K1 PTH1R parental cells (mock) was 8.6 pEC50.

With PTHrP (1-141) (ligand), in experiment [1], the efficacy, cAMP accumulation, CHO-K1 PTH1R + RAMP2 cells amounted to 85.3%; the efficacy, cAMP accumulation, CHO-K1 PTH1R + RAMP3 cells turned out to be 55.7%; the efficacy, cAMP accumulation, CHO-K1 PTH1R parental cells (mock) was determined as 74.9%; the pEC50, cAMP accumulation, CHO-K1 PTH1R + RAMP2 cells was 9.25 pEC50. For the same molecule, in experiment [1], the pEC50, cAMP accumulation, CHO-K1 PTH1R + RAMP3 cells came to 7.86 pEC50 and the pEC50, cAMP accumulation, CHO-K1 PTH1R parental cells (mock) worked out at 9.23 pEC50.

B1: receptor activity-modifying protein 2, C-tagged Cerulean RAMP2 (natural protein, human, UniProt O60895 43-175, looked up)
chain: QPLPTTGTPGSEGGTVKNYETAVQFCWNHYKDQMDPIEKDWCDWAMISRPYSTLRDCLEHFAELFDLGFPNPLAERIIFETHQIHFANCSLVQPTFSDPPEDVLLAMIIAPICLIPFLITLVVWRSKDSEAQA
notes: RAMP2, cDNA without its stop codon between Kpn1 and Not1 of pcDNA3.1 Cerulean; source: COS-7, transfected (electroporation, pcDNA3.1), in fixed cells; not shown: Cerulean, C-terminal, kept
For the molecule B1, the “stoichiometry N” value in experiment [3] is roughly 1 RAMP2 per PTH1R. In experiment [4], the “R (molar ratio of acceptor to donor)” value was 1.27 ± 0.31 PTH1R (acceptor) per RAMP2 (donor) and the “cell membrane NFRET relative to cer-cit fusion” value amounted to 48.8 ± 4.1%.

B2: PTH (1-84) (ligand)
chain: SVSEIQLMHNLGKHLNSMERVEWLRKKLQDVHNFVALGAPLAPRDAGSQRPRKKEDNVLVESHEKSLGEADKADVNVLTKAKSQ
As for B2, in experiment [5], the efficacy, cAMP accumulation (Gαs), CHO-K1 PTH1R + RAMP2 cells came to 95.5%; the efficacy, cAMP accumulation (Gαs), CHO-K1 PTH1R + RAMP3 cells was 72.2%; the efficacy, cAMP accumulation (Gαs), CHO-K1 PTH1R parental cells (mock) came to 86.6%; the efficacy, cAMP accumulation after pertussis toxin (cAMP + PTX), CHO-K1 PTH1R + RAMP2 cells stood at 94.3%. Besides, in experiment [5], the efficacy, cAMP accumulation after pertussis toxin (cAMP + PTX), CHO-K1 PTH1R + RAMP3 cells came to 71.5%; the efficacy, cAMP accumulation after pertussis toxin (cAMP + PTX), CHO-K1 PTH1R parental cells (mock) was 85.5%; the efficacy, calcium influx (Gαq), CHO-K1 PTH1R + RAMP2 cells came to 82.2%; the efficacy, β-arrestin recruitment, CHO-K1 PTH1R + RAMP2 cells is 104%. In addition, in experiment [5], the efficacy, β-arrestin recruitment, CHO-K1 PTH1R parental cells (mock) is 6.08%; the pEC50, cAMP accumulation (Gαs), CHO-K1 PTH1R + RAMP2 cells was determined as 9.24 pEC50; the pEC50, cAMP accumulation (Gαs), CHO-K1 PTH1R + RAMP3 cells came out at 7.55 pEC50; the pEC50, cAMP accumulation (Gαs), CHO-K1 PTH1R parental cells (mock) was 8.2 pEC50. Moreover, in experiment [5], the pEC50, cAMP accumulation after pertussis toxin (cAMP + PTX), CHO-K1 PTH1R + RAMP2 cells is 9.01 pEC50; the pEC50, cAMP accumulation after pertussis toxin (cAMP + PTX), CHO-K1 PTH1R + RAMP3 cells is 7.51 pEC50; the pEC50, cAMP accumulation after pertussis toxin (cAMP + PTX), CHO-K1 PTH1R parental cells (mock) was determined as 7.8 pEC50; the pEC50, calcium influx (Gαq), CHO-K1 PTH1R + RAMP2 cells came to 7.38 pEC50. Moreover, in experiment [5], the pEC50, β-arrestin recruitment, CHO-K1 PTH1R + RAMP2 cells was 8.1 pEC50 and the pEC50, β-arrestin recruitment, CHO-K1 PTH1R parental cells (mock) stood at 8.4 pEC50.

B3: receptor activity-modifying protein 3, C-tagged Cerulean RAMP3 (natural protein, human, UniProt O60896 24-148, looked up)
chain: RAGGCNETGMLERLPLCGKAFADMMGKVDVWKWCNLSEFIVYYESFTNCTEMEANVVGCYWPNPLAQGFITGIHRQFFSNCTVDRVHLEDPPDEVLIPLIVIPVVLTVAMAGLVVWRSKRTDTLL
notes: RAMP3, cDNA without its stop codon between Kpn1 and Not1 of pcDNA3.1 Cerulean; source: COS-7, transfected (electroporation, pcDNA3.1), in fixed cells; not shown: Cerulean, C-terminal, kept
For B3, the “stoichiometry N” value in experiment [3] was roughly 2 RAMP3 per PTH1R. In experiment [4], the “R (molar ratio of acceptor to donor)” value was 0.37 ± 0.06 PTH1R (acceptor) per RAMP3 (donor) and the “cell membrane NFRET relative to cer-cit fusion” value stood at 32 ± 4.7%.
